Data published in the supplement of paper PMC10567573.

B1: KRT33B (parent)
chain: PAVDLNQVLNETRNQYEALVETNR
B2: MATN2 (parent)
chain: FIVDILQFLDIGPDVTRVGLLQYG

Variants of: B1
Assay: protein stability index of a GFP-peptide fusion (GPS, HEK-293T) (PSI 1-6); higher = more stable
Details: c terminus: a fixed tail appended
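Further: lentivirally expressed fusions sorted by FACS into six bins by GFP to DsRed ratio, PSI derived from sequencing read proportions per bin multiplied by bin number.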

Protein stability index, by site and new letter:
T22: H 3.98 | N 4.5 | P 4.65 | R 4.02 | L 2.23 | G 4.73 | S 4.43 | M 3.33 | V 1.57 | F 3.61 | A 3.94 | D 4.8 | W 3.88 | K 3.7 | Q 3.94 | C 3.78 | E 4.05 | Y 4.57 | I 3.02
N23: H 4.35 | L 3.06 | G 4.07 | Y 3.71 | P 4.54 | C 4.03 | F 2.58 | V 3.27 | M 3.29 | E 4.51 | R 4.31 | W 3.36 | Q 4.43 | D 5.06 | I 3.24 | S 4.25 | T 4.46 | A 4.3 | K 4.54
R24: V 1.45 | L 2.54 | I 2.59 | E 4.13 | W 3.46 | C 2.43 | F 3 | N 4.16 | Q 4.16 | S 4.15 | T 3.87 | H 4.24 | Y 2.83 | P 4.94 | K 3.97 | G 4.72 | M 2.16 | D 5.15 | A 4
V20: L 3.88 | F 4.09 | I 4.39 | Q 4.94 | K 4.24 | G 4.49 | E 3.52 | C 4.06 | R 4.43 | T 4.95 | W 3.62 | D 5.39 | A 2.74 | P 4.34 | N 4.45 | Y 4.22 | M 2.8 | H 4.92 | S 4.43
L19: W 4.25 | Y 4.61 | V 4.85
E21: W 2.89 | G 4.22 | S 4.05 | F 3.23 | Q 3.95 | T 4.06 | I 3.71 | M 3.67 | H 4.19 | D 3.69 | A 3.85 | L 3.37 | N 4.14 | C 3.58 | V 3.54 | Y 3.23 | K 4.2 | P 4.18 | R 4.04

Variants of: B2
Assay: as above
Details: c terminus: a fixed tail appended

Protein stability index: each site, then its substitutions
L9: F 3.76 | E 1.72 | K 1.84 | P 4.2 | T 2.81 | D 2.93 | Q 2.47 | A 1.79
T16: R 2.33 | Y 4.05 | G 2.19 | P 2.42 | M 1.06 | L 3.03 | W 3.52 | D 2.7
V3: K 2.6 | D 3.75 | P 2.84 | Y 2.5 | H 4.66 | N 3.33 | W 3.32
I11: G 3.02 | S 2.12 | Y 3.28 | K 3.5 | L 2.53 | T 2.8 | M 3.73 | N 2.49 | H 4.42 | C 1.18 | Q 2.77
L21: E 3.73 | W 3.27 | P 4.3 | C 3.73 | F 2.62 | S 2.57 | G 3.3 | A 2.8 | I 2.79 | T 2.95 | K 2.13 | H 2.01
R17: Y 3.22 | V 3.47 | L 3.37 | F 2.23 | C 2.86 | S 1.03 | G 2.07 | M 2.05 | I 2.77 | A 3.59 | N 2.75
F8: G 4.33 | S 2.12 | L 2.43 | I 2.65 | V 2.94 | N 1.68 | D 2 | P 2.96 | K 1.06 | Q 2.49 | C 2.21 | T 3.44
